This note sets out measurements from article PMC4252739 (Cell host & microbe, 2014).

This data set deals with the molecule itself. Description: cryo-EM imaging.

B1: MBP-MxB (full-length WT MxB tagged with maltose-binding protein) (natural protein, UniProt P20592 1-715, looked up)
chain: MSKAHKPWPYRRRSQFSSRKYLKKEMNSFQQQPPPFGTVPPQMMFPPNWQGAEKDAAFLAKDFNFLTLNNQPPPGNRSQPRAMGPENNLYSQYEQKVRPCIDLIDSLRALGVEQDLALPAIAVIGDQSSGKSSVLEALSGVALPRGSGIVTRCPLVLKLKKQPCEAWAGRISYRNTELELQDPGQVEKEIHKAQNVMAGNGRGISHELISLEITSPEVPDLTIIDLPGITRVAVDNQPRDIGLQIKALIKKYIQRQQTINLVVVPCNVDIATTEALSMAHEVDPEGDRTIGILTKPDLMDRGTEKSVMNVVRNLTYPLKKGYMIVKCRGQQEITNRLSLAEATKKEITFFQTHPYFRVLLEEGSATVPRLAERLTTELIMHIQKSLPLLEGQIRESHQKATEELRRCGADIPSQEADKMFFLIEKIKMFNQDIEKLVEGEEVVRENETRLYNKIREDFKNWVGILATNTQKVKNIIHEEVEKYEKQYRGKELLGFVNYKTFEIIVHQYIQQLVEPALSMLQKAMEIIQQAFINVAKKHFGEFFNLNQTVQSTIEDIKVKHTAKAENMIQLQFRMEQMVFCQDQIYSVVLKKVREEIFNPLGTPSQNMKLNSHFPSNESSVSSFTEIGIHLNAYFLETSKRLANQIPFIIQYFMLRENGDSLQKAMMQILQEKNRYSWLLQEQSETATKRRILKERIYRLTQARHALCQFSSKEIH
For the protein B1, the binding result is recorded as “binds”.
